Test results published in patent US5854042A, “Sugar-chain synthetase and process for producing the same” (The Institute of Physical and Chemical Research, priority 1993, dated 1998).
Blank lines part the entries; values can stand above or below the molecule they belong to.

Tests used:
[1] = biological target: Asialo-alpha 1 acid glycoprotein
[2] = biological target: Asialo-fetuin (Bos taurus (Bovine)) (UniProt P12763)
[3] = biological target: Bovine submaxillary asialo-mucin (bovine)
[4] = biological target: Bovine submaxillary mucin (bovine)
[5] = biological target: Fetuin (Bos taurus (Bovine)) (UniProt P12763)
[6] = biological target: alpha 1 acid glycoprotein
[7] = biological target: Asialo-alpha 1 acid glycoprotein; remark: listed apart in the source
[8] = biological target: Asialo-fetuin (Bos taurus (Bovine)) (UniProt P12763); remark: listed apart in the source
[9] = biological target: Bovine submaxillary asialo-mucin (bovine); remark: listed apart in the source
[10] = biological target: Bovine submaxillary mucin (bovine); remark: listed apart in the source
[11] = biological target: Fetuin (Bos taurus (Bovine)) (UniProt P12763); remark: listed apart in the source
[12] = biological target: alpha 1 acid glycoprotein; remark: listed apart in the source
[13] = substrate: CC(=O)N[C@H]1C(O)O[C@H](CO)[C@@H](O[C@@H]2O[C@H](CO)[C@H](O)[C@H](O)[C@H]2O)[C@@H]1O; experiment: cells, lysate or membranes named; conditions: other: renatured enzyme after removal of urea by dialysis
[14] = substrate: CC(=O)N[C@H]1[C@H]([C@H](O)[C@H](O)CO)O[C@](OP(=O)(O)OC[C@H]2O[C@@H](n3ccc(N)nc3=O)[C@H](O)[C@@H]2O)(C(=O)O)C[C@@H]1O; experiment: Sialyltransferase assay, kinetic parameters (Km) of the renatured enzyme; assay type: biochemical, mouse; conditions: other: renatured enzyme after removal of urea by dialysis; measured with N-acetyllactosamine as the acceptor
Protocol: Reaction mixture was added with 1 mg/ml bovine serum albumin, 1 μl of the enzyme solution, and 50 mM sodium cacodylate (pH 6.0) to a total volume of 10 μl, and incubation was continued at 37° C. for 1 h. Then, the samples were applied to silica gel60 HPTLC plate (Merck Germany) and developed with ethanol/pyridine/n-butanol/acetic acid/water (100:10:10:3:30) as a developing solvent. The radioactivity transferred on each plate was determined with a radio image analyzer BAS2000 (Fuji Photo Film, Japan, Lee, Y.-C. et al., Eur. J. Biochem., 216, 377-385, 1993).

[15] = substrate: CC(=O)N[C@H]1C(O)O[C@H](CO)[C@@H](O[C@@H]2O[C@H](CO)[C@H](O)[C@H](O)[C@H]2O)[C@@H]1O; experiment: purified protein, by the assay type; conditions: pH 6.0; 37.0 °C
[16] = substrate: CC(=O)N[C@H]1[C@H]([C@H](O)[C@H](O)CO)O[C@](OP(=O)(O)OC[C@H]2O[C@@H](n3ccc(N)nc3=O)[C@H](O)[C@@H]2O)(C(=O)O)C[C@@H]1O; experiment: purified protein, by the assay type; conditions: other: measured with N-acetyllactosamine as the acceptor; pH 6.0; 37.0 °C

Molecule: Renatured mouse Gal beta 1,4GlcNAc alpha 2,6-sialyltransferase (from UniProt Q64685) (enzyme)
Relative Activity to Gal β 1,4GlcNAc (relative to Gal β 1,4GlcNAc) [7]: 2.1
Relative Activity to Gal β 1,4GlcNAc (relative to Gal β 1,4GlcNAc) [8]: 1.5
Relative Activity to Gal β 1,4GlcNAc (% of the control) [9]: < 2
Relative Activity to Gal β 1,4GlcNAc (% of the control) [10]: < 2
Relative Activity to Gal β 1,4GlcNAc (relative to Gal β 1,4GlcNAc) [11]: 0.25
Relative Activity to Gal β 1,4GlcNAc (relative to Gal β 1,4GlcNAc) [12]: 0.1
Km (Asialo-orosomucoid): 400 µM

B1: mouse Gal β 1,4GlcNAc α 2,6-sialyltransferase, recombinant soluble form lacking the cytosolic and transmembrane domains (29th amino acid residue to C-terminal … (protein)
chain: GSDYEALTLQAKVFQMPKSQEKVAVGPAPQAVFSNSKQDPKEGVQILSYPRVTAKVKPQPSLQVWDKDSTYSKLNPRLLKIWRNYLNMNKYKVSYKGPGPGVKFSVEALRCHLRDHVNVSMIEATDFPFNTTEWEGYLPKENFRTKAGPWHKCAVVSSAGSLKNSQLGREIDNHDAVLRFNGAPTDNFQQDVGTKTTIRLVNSQLVTTEKRFLKDSLYTEGILILWDPSVYHADIPQWYQKPDYNFFETYKSYRRLHPSQPFYILKPQMPWELWDIIQEISPDLIQPNPPSSGMLGIIIMMTLCDQVDIYEFLPSKRKTDVCYYHQKFFDSACTMGAYHPLLFEKNMVKHLNEGTDEDIYLFGKATLSGFRNNRC
Km [13]: 6500 µM
Km [14]: 80 µM

B2: Rat liver Gal β 1,4GlcNAc α 2,6-sialyltransferase (obtained from Sigma) (Rattus norvegicus) (protein)
chain: MIHTNLKKKFSLFILVFLLFAVICVWKKGSDYEALTLQAKEFQMPKSQEKVAMGSASQVVFSNSKQDPKEDIPILSYHRVTAKVKPQPSFQVWDKDSTYSKLNPRLLKIWRNYLNMNKYKVSYKGPGPGVKFSVEALRCHLRDHVNVSMIEATDFPFNTTEWEGYLPKENFRTKVGPWQRCAVVSSAGSLKNSQLGREIDNHDAVLRFNGAPTDNFQQDVGSKTTIRLMNSQLVTTEKRFLKDSLYTEGILIVWDPSVYHADIPKWYQKPDYNFFETYKSYRRLNPSQPFYILKPQMPWELWDIIQEISADLIQPNPPSSGMLGIIIMMTLCDQVDIYEFLPSKRKTDVCYYHQKFFDSACTMGAYHPLLFEKNMVKHLNEGTDEDIYLFGKATLSGFRNIRC
Km [15]: 5000 µM
Km [16]: 40 µM

Continued, values first:

Acceptor substrate specificity, pmol/h/µl enzyme fraction ([14C]NeuAc transfer) [1]: 1.2 pmol/h/µL
Acceptor substrate specificity, pmol/h/µl enzyme fraction ([14C]NeuAc transfer) [2]: 35 pmol/h/µL
Acceptor substrate specificity, pmol/h/µl enzyme fraction ([14C]NeuAc transfer) (Asialo-ovomucoid): 1 pmol/h/µL
Acceptor substrate specificity, pmol/h/µl enzyme fraction ([14C]NeuAc transfer) [3]: 5.2 pmol/h/µL
Acceptor substrate specificity, pmol/h/µl enzyme fraction ([14C]NeuAc transfer) [4]: 0.5 pmol/h/µL
Acceptor substrate specificity, pmol/h/µl enzyme fraction ([14C]NeuAc transfer) [5]: 28 pmol/h/µL
Acceptor substrate specificity, pmol/h/µl enzyme fraction ([14C]NeuAc transfer) (Ovomucoid): < 0.5 pmol/h
Acceptor substrate specificity, pmol/h/µl enzyme fraction ([14C]NeuAc transfer) [6]: < 0.5 pmol/h
Molecule: GalNAc alpha 2,6-sialyltransferase P-B3 (enzyme)

Relative Activity to Gal β 1,4GlcNAc (relative to Gal β 1,4GlcNAc) [7]: 1
Relative Activity to Gal β 1,4GlcNAc (relative to Gal β 1,4GlcNAc) [8]: 0.97
Relative Activity to Gal β 1,4GlcNAc (% of the control) [9]: < 2
Relative Activity to Gal β 1,4GlcNAc (% of the control) [10]: < 2
Relative Activity to Gal β 1,4GlcNAc (% of the control) [11]: < 2
Relative Activity to Gal β 1,4GlcNAc (relative to Gal β 1,4GlcNAc) [12]: 0.1
Km (Asialo-orosomucoid): 200 µM
Molecule: Rat liver Gal beta 1,4GlcNAc alpha 2,6-sialyltransferase (from UniProt P13721) (enzyme)
